Laboratory results reported in publication PMC12051055, “Spectroscopy and crystallography define carotenoid oxygenases as a new subclass of mononuclear non-heme Fe^II enzymes” (The Journal of Biological Chemistry, 2025).

Columns and labels:
[1] = system: Oc1cc(O)cc(/C=C/c2ccc(O)c(O)c2)c1; test: X-ray crystal structure of complex, MCD; the value is the apparent Km from steady-state kinetics; assay type: biochemical, Neurospora crassa; details: Fe(II) active site
CC=Cc1ccc(O)c(OC)c1 = test: steady-state kinetics of cleavage to vanillin by purified enzyme (apparent Km); assay type: biochemical, Neurospora crassa; details: Fe(II)
[2] = ~[…]° rotation of the β-ring toward the vacancy left from the absent Thr side chain
[3] = β-ring rotated ~[…]° away from the Val151 side chain

In the case of “CAO1 (Neurospora crassa carotenoid oxygenase 1) (Neurospora crassa OR74A; T151G)”, the Km ([1]; rotation of the β-ring toward the vacancy left from the absent Thr side chain) is reported as 0.110 ± 0.013 µM, the kcat [1, 2] is reported as 0.089 ± 0.003 s⁻¹ and the kcat/Km [1, 2] is reported as 810000 ± 100000 M⁻¹ s⁻¹.

Substance “CAO1 (Neurospora crassa carotenoid oxygenase 1) (Neurospora crassa OR74A; T151V)” has a Km ([1]; β-ring rotated away from the Val151 side chain) of 0.027 ± 0.003 µM, a kcat [1, 3] of 1.04 ± 0.024 s⁻¹ and a kcat/Km [1, 3] of 3.87e+07 ± 4.42e+06 M⁻¹ s⁻¹. The Km (CC=Cc1ccc(O)c(OC)c1) was 93.92 ± 12.27 µM.
